The values below come from paper PMC2213607 (The Journal of Cell Biology, 2008).

Residue numbers refer to the chain shown, from its start. Names and notes keep the numbering of the source.

By stoichiometry N is commonly meant a count of units in the complex or per binding partner.

Data set [1] has as its target His-tagged (6×) human Rab6A (human, UniProt P20340 1-208). The data set can be described thus: pull-down.
Data set [2] concerns the molecule itself.

Sequence of His-tagged (6×) human Rab6A (P20340 whole entry): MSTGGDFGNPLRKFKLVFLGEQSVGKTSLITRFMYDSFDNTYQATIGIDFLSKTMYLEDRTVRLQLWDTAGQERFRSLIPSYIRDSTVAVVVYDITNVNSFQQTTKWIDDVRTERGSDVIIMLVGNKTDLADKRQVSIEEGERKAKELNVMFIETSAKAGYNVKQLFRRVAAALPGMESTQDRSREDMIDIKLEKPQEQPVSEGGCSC

B1: GCC185 C-110 (fragment of the 110 C-terminal-most amino acids of GCC185) (domain or fragment, UniProt Q8IWJ2 1575-1684, looked up)
chain: LNGLLRETEATNAILMEQIKLLKSEIRRLERNQEREKSAANLEYLKNVLLQFIFLKPGSERERLLPVINTMLQLSPEEKGKLAAVAQGEEENASRSSGWASYLHSWSGLR
As to B1, in data set [1], the binding result is listed as “binds”.

B2: GCC185 C-110 I1588A/L1595A (domain or fragment, UniProt Q8IWJ2 1575-1684, looked up)
chain: B1 chain with I14A, L21A
As for B2, the “stoichiometry N” value in data set [2] was 2.
